According to the supplement of paper PMC10567573:

B1: ANKRD40 (parent)
chain: VCCCELGVNPDQVEKIRKLPNTLL

Variants of: B1
Assay: protein stability index of a GFP-peptide fusion (GPS, HEK-293T) (PSI 1-6); higher = more stable
Conditions: c terminus: a fixed tail appended
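Further: lentivirally expressed fusions sorted by FACS into six bins by GFP to DsRed ratio, PSI derived from sequencing read proportions per bin multiplied by bin number.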

Row | Variant | protein stability index
1 | VNCCELGVNPDQVEKIRKLPNTLL [C2N] | 2.7
2 | VDCCELGVNPDQVEKIRKLPNTLL [C2D] | 3.2
3 | VSCCELGVNPDQVEKIRKLPNTLL [C2S] | 2.76
4 | VFCCELGVNPDQVEKIRKLPNTLL [C2F] | 1.9
5 | VLCCELGVNPDQVEKIRKLPNTLL [C2L] | 2.04
6 | VTCCELGVNPDQVEKIRKLPNTLL [C2T] | 2.72
7 | VMCCELGVNPDQVEKIRKLPNTLL [C2M] | 2.4
8 | VPCCELGVNPDQVEKIRKLPNTLL [C2P] | 3.22
9 | VECCELGVNPDQVEKIRKLPNTLL [C2E] | 3.52
10 | VGCCELGVNPDQVEKIRKLPNTLL [C2G] | 2.73
11 | VVCCELGVNPDQVEKIRKLPNTLL [C2V] | 3.24
12 | VQCCELGVNPDQVEKIRKLPNTLL [C2Q] | 3.56
13 | VKCCELGVNPDQVEKIRKLPNTLL [C2K] | 2.63
14 | VWCCELGVNPDQVEKIRKLPNTLL [C2W] | 1.45
15 | VHCCELGVNPDQVEKIRKLPNTLL [C2H] | 2.65
16 | VCLCELGVNPDQVEKIRKLPNTLL [C3L] | 2.03
17 | VCMCELGVNPDQVEKIRKLPNTLL [C3M] | 2.29
18 | VCSCELGVNPDQVEKIRKLPNTLL [C3S] | 2.09
19 | VCFCELGVNPDQVEKIRKLPNTLL [C3F] | 1.24
20 | VCTCELGVNPDQVEKIRKLPNTLL [C3T] | 2.38
21 | VCYCELGVNPDQVEKIRKLPNTLL [C3Y] | 2.27
22 | VCICELGVNPDQVEKIRKLPNTLL [C3I] | 1.69
23 | VCRCELGVNPDQVEKIRKLPNTLL [C3R] | 2.1
24 | VCHCELGVNPDQVEKIRKLPNTLL [C3H] | 2.18

Row | Variant | protein stability index
25 | VCWCELGVNPDQVEKIRKLPNTLL [C3W] | 1.81
26 | VCPCELGVNPDQVEKIRKLPNTLL [C3P] | 1.97
27 | VCNCELGVNPDQVEKIRKLPNTLL [C3N] | 1.82
28 | VCKCELGVNPDQVEKIRKLPNTLL [C3K] | 2.23
29 | VCGCELGVNPDQVEKIRKLPNTLL [C3G] | 2.19
30 | VCECELGVNPDQVEKIRKLPNTLL [C3E] | 2.77
31 | VCDCELGVNPDQVEKIRKLPNTLL [C3D] | 2.31
32 | VCQCELGVNPDQVEKIRKLPNTLL [C3Q] | 1.96
33 | VCVCELGVNPDQVEKIRKLPNTLL [C3V] | 2.53
34 | VCACELGVNPDQVEKIRKLPNTLL [C3A] | 2.42
35 | PCCCELGVNPDQVEKIRKLPNTLL [V1P] | 1.41
36 | QCCCELGVNPDQVEKIRKLPNTLL [V1Q] | 2.19
37 | ECCCELGVNPDQVEKIRKLPNTLL [V1E] | 2.83
38 | ACCCELGVNPDQVEKIRKLPNTLL [V1A] | 1.66
39 | NCCCELGVNPDQVEKIRKLPNTLL [V1N] | 2.31
40 | FCCCELGVNPDQVEKIRKLPNTLL [V1F] | 1.5
41 | WCCCELGVNPDQVEKIRKLPNTLL [V1W] | 1.79
42 | DCCCELGVNPDQVEKIRKLPNTLL [V1D] | 3.1
43 | CCCCELGVNPDQVEKIRKLPNTLL [V1C] | 1.96
44 | TCCCELGVNPDQVEKIRKLPNTLL [V1T] | 1.71
45 | SCCCELGVNPDQVEKIRKLPNTLL [V1S] | 2.4
46 | YCCCELGVNPDQVEKIRKLPNTLL [V1Y] | 1.85
47 | HCCCELGVNPDQVEKIRKLPNTLL [V1H] | 2.21
48 | ICCCELGVNPDQVEKIRKLPNTLL [V1I] | 1.2

Row | Variant | protein stability index
49 | GCCCELGVNPDQVEKIRKLPNTLL [V1G] | 1.68
50 | KCCCELGVNPDQVEKIRKLPNTLL [V1K] | 2.35
51 | RCCCELGVNPDQVEKIRKLPNTLL [V1R] | 1.99
52 | LCCCELGVNPDQVEKIRKLPNTLL [V1L] | 2.04
53 | MCCCELGVNPDQVEKIRKLPNTLL [V1M] | 2
54 | VCCCELGCNPDQVEKIRKLPNTLL [V8C] | 1.86
55 | VCCCELGFNPDQVEKIRKLPNTLL [V8F] | 1.3
56 | VCCCELGANPDQVEKIRKLPNTLL [V8A] | 1.86
57 | VCCCELGENPDQVEKIRKLPNTLL [V8E] | 2.39
58 | VCCCELGDNPDQVEKIRKLPNTLL [V8D] | 2.37
59 | VCCCELGGNPDQVEKIRKLPNTLL [V8G] | 2.33
60 | VCCCELGHNPDQVEKIRKLPNTLL [V8H] | 2.17
61 | VCCCKLGVNPDQVEKIRKLPNTLL [E5K] | 2.22
62 | VCCCMLGVNPDQVEKIRKLPNTLL [E5M] | 1.32
63 | VCCCQLGVNPDQVEKIRKLPNTLL [E5Q] | 1.71
64 | VCCCVLGVNPDQVEKIRKLPNTLL [E5V] | 1.18
65 | VCCCDLGVNPDQVEKIRKLPNTLL [E5D] | 1.89
66 | VCCCRLGVNPDQVEKIRKLPNTLL [E5R] | 1.47
67 | VCCCPLGVNPDQVEKIRKLPNTLL [E5P] | 2.17
68 | VCCCCLGVNPDQVEKIRKLPNTLL [E5C] | 1.1
69 | VCCCGLGVNPDQVEKIRKLPNTLL [E5G] | 1.33
70 | VCCCHLGVNPDQVEKIRKLPNTLL [E5H] | 2.82
71 | VCCCSLGVNPDQVEKIRKLPNTLL [E5S] | 2.81
72 | VCCCYLGVNPDQVEKIRKLPNTLL [E5Y] | 2.68

Row | Variant | protein stability index
73 | VCCCFLGVNPDQVEKIRKLPNTLL [E5F] | 3.32
74 | VCCCNLGVNPDQVEKIRKLPNTLL [E5N] | 1.97
75 | VCCCLLGVNPDQVEKIRKLPNTLL [E5L] | 2.28
76 | VCCCALGVNPDQVEKIRKLPNTLL [E5A] | 1.84
77 | VCCMELGVNPDQVEKIRKLPNTLL [C4M] | 2.16
78 | VCCWELGVNPDQVEKIRKLPNTLL [C4W] | 1.98
79 | VCCRELGVNPDQVEKIRKLPNTLL [C4R] | 2.43
80 | VCCYELGVNPDQVEKIRKLPNTLL [C4Y] | 1.85
81 | VCCDELGVNPDQVEKIRKLPNTLL [C4D] | 3.17
82 | VCCVELGVNPDQVEKIRKLPNTLL [C4V] | 2.74
83 | VCCSELGVNPDQVEKIRKLPNTLL [C4S] | 2.84
84 | VCCKELGVNPDQVEKIRKLPNTLL [C4K] | 2.22
85 | VCCLELGVNPDQVEKIRKLPNTLL [C4L] | 1.73
86 | VCCHELGVNPDQVEKIRKLPNTLL [C4H] | 2.27
87 | VCCIELGVNPDQVEKIRKLPNTLL [C4I] | 2.28
88 | VCCTELGVNPDQVEKIRKLPNTLL [C4T] | 2.76
89 | VCCQELGVNPDQVEKIRKLPNTLL [C4Q] | 2.72
90 | VCCGELGVNPDQVEKIRKLPNTLL [C4G] | 2.12
91 | VCCAELGVNPDQVEKIRKLPNTLL [C4A] | 1.87
92 | VCCEELGVNPDQVEKIRKLPNTLL [C4E] | 3
93 | VCCNELGVNPDQVEKIRKLPNTLL [C4N] | 2.41
94 | VCCFELGVNPDQVEKIRKLPNTLL [C4F] | 1.83
